Test results: US20130129746A1 (GlaxoSmithKline, published 2013)
Read-outs that look alike come from different tables or passages of the source. Each block holds one binder with its values, some of them ahead of it.

Assays:
[1] = target: T1, Cynomolgus monkey Serum Albumin (Cynomolgus monkey, UniProt A2V9Z4 25-608); test: BIAcore SPR;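 as to koff: purified dAbs run at 1 µM, 500 nM and 50 nM over human, cynomolgus, mouse and rat serum albumin in BIAcore binding measurements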
T1 construct: mature; purified protein on CM5 chips for BIAcore; also called CSA; cyno SA
Experimental: (§1) Binding to HSA, CSA, MSA and RSA by BIAcore was confirmed using purified protein at 3 concentrations 1 μM, 500 nM and 50 nM.

[2] = target: T2, mouse serum albumin (mouse, UniProt P07724 25-608); test: BIAcore SPR;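 as to koff: purified dAbs run at 1 µM, 500 nM and 50 nM over human, cynomolgus, mouse and rat serum albumin in BIAcore binding measurements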
T2 construct: mature; purified protein on CM5 chips for BIAcore; also called MSA; mouse SA
Experimental: as §1

[3] = target: T3, Rat Serum Albumin (rat, UniProt P02770 25-608); test: BIAcore SPR;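 as to koff: purified dAbs run at 1 µM, 500 nM and 50 nM over human, cynomolgus, mouse and rat serum albumin in BIAcore binding measurements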
T3 construct: mature; purified protein on CM5 chips for BIAcore; also called RSA; rat SA
Experimental: as §1

[4] = target: T4, Human Serum Albumin (human, UniProt P02768 25-609); test: BIAcore SPR
T4 construct: mature; purified protein on CM5 chips for BIAcore; also called HSA; human SA
Experimental: as §1

[5] = target: T2, mouse serum albumin; test: Albumin KD column of the PK table (repeats Table 6)
[6] = target: T3, Rat Serum Albumin; test: as above
[7] = target: T1, Cynomolgus monkey Serum Albumin; test: BIAcore SPR; remark: listed apart in the source;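 as to koff: purified dAbs run at 1 µM, 500 nM and 50 nM over human, cynomolgus, mouse and rat serum albumin in BIAcore binding measurements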
Text: (§2) MSA antigen was obtained from Sigma (essentially fatty acid free, ˜99% (agarose gel electrophoresis), lyophilized powder Cat. No. A3559) and CSA was purified from Cynomolgus serum albumin using prometic blue resin (Amersham).

[8] = target: T2, mouse serum albumin; test: BIAcore SPR; remark: listed apart in the source
Text: as §2

[9] = target: T3, Rat Serum Albumin; test: BIAcore SPR; remark: listed apart in the source
Text: as §2

[10] = target: T4, Human Serum Albumin; test: BIAcore SPR; remark: listed apart in the source
Text: as §2

[11] = target: T4, Human Serum Albumin; test: BIAcore SPR; remark: listed apart in the source
[12] = target: T3, Rat Serum Albumin; test: BIAcore SPR; remark: listed apart in the source
[13] = target: T1, Cynomolgus monkey Serum Albumin; test: BIAcore SPR; remark: listed apart in the source
[14] = target: T1, Cynomolgus monkey Serum Albumin; test: BIAcore SPR, second independent experiment;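 also: purified domain antibodies run as analytes at 50 nM, 500 nM and 1 µM over HSA, CSA, MSA and RSA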
Experimental: as §1

[15] = target: T2, mouse serum albumin; test: BIAcore SPR, second independent experiment;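 also: purified domain antibodies run as analytes at 50 nM, 500 nM and 1 µM over HSA, CSA, MSA and RSA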
Experimental: as §1

[16] = target: T3, Rat Serum Albumin; test: BIAcore SPR, second independent experiment;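 also: purified domain antibodies run as analytes at 50 nM, 500 nM and 1 µM over HSA, CSA, MSA and RSA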
Experimental: as §1

[17] = target: T4, Human Serum Albumin; test: BIAcore SPR, second independent experiment;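 also: purified domain antibodies run as analytes at 50 nM, 500 nM and 1 µM over HSA, CSA, MSA and RSA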
Experimental: as §1

T3 sequence (P02770 25-608): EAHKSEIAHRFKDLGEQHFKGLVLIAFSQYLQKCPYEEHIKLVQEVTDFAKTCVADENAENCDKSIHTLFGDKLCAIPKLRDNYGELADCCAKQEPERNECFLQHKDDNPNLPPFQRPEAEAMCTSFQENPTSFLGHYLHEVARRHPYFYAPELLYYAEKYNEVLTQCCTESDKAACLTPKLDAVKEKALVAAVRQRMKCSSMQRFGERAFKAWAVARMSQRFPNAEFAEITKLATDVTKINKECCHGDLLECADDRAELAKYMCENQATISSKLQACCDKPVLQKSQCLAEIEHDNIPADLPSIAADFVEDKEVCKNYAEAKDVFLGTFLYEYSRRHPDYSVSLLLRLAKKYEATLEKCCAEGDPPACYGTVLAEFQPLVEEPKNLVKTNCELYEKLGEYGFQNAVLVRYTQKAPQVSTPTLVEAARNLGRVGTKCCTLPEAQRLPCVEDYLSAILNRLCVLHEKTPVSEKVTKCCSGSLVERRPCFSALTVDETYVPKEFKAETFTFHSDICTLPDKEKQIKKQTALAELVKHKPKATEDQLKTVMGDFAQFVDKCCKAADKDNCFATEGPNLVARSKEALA
T1 sequence (A2V9Z4 25-608): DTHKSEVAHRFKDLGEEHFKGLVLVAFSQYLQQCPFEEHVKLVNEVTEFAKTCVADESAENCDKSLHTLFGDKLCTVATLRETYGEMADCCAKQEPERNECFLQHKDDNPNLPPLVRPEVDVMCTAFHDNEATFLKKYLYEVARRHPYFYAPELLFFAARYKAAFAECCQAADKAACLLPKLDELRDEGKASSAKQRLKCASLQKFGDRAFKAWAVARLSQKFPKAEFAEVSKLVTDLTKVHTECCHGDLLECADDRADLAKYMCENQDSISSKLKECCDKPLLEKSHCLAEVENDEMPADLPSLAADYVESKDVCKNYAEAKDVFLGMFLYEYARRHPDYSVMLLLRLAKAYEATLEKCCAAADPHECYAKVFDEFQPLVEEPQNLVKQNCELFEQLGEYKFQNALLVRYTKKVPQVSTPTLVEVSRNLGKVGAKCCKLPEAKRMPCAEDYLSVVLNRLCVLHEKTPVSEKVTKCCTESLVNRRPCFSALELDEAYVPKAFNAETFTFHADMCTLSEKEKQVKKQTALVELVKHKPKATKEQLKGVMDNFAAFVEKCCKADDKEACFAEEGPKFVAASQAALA
T2 sequence (P07724 25-608): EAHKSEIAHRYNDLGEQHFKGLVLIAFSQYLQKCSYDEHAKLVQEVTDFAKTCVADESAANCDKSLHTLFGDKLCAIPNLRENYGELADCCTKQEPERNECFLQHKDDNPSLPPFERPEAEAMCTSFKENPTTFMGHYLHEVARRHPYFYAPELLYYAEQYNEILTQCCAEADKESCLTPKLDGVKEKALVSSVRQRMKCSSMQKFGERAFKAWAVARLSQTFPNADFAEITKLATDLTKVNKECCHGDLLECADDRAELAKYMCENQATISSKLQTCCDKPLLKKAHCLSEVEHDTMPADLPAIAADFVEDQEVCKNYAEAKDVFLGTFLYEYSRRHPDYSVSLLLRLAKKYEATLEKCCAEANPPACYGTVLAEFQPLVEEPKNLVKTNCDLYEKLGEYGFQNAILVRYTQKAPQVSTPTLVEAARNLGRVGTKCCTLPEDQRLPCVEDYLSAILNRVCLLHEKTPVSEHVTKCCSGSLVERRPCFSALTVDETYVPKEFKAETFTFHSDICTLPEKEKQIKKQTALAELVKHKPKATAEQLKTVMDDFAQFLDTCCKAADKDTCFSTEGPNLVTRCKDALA

B2: DOM7h-11-80 (other)
VL: DIQMTQSPSSLSASVGDRVTIFCRASRPIGTMLSWYQQKPGKAPKLLILAFSRLQSGVPSRFSGSGSGTDFTLTISSLQPEDFATYYCAQAGTHPTTFGQGTKVEIKW
notes: Vk dAb
Kd [7]: 5.5 nM | Kd [8]: 10.9 nM | Kd [9]: 24.1 nM | Kd [10]: 2.1 nM

B3: DOM7h-11-65 (other)
VL: DIQMTQSPSSLSASVGDRVTITCRASRPIGTMLSWYQQKPGKAPKLLILAFSRLQSGVPSRFSGSGSGTDFTLTISSLQPEDVATYYCAQAGTHPTTFGQGTKVEIKW
notes: Vk dAb
Ka [7]: 6.35e+07 M⁻¹ | Kd [7]: 15.7 nM | kon [7]: 1.19e+06 M⁻¹ s⁻¹ | Kd [8]: 9.4 nM | Ka [9]: 4.06e+07 M⁻¹ | Kd [9]: 24.6 nM | kon [9]: 780000 M⁻¹ s⁻¹ | Ka [10]: 5.52e+08 M⁻¹ | Kd [10]: 1.8 nM | kon [10]: 1.3e+06 M⁻¹ s⁻¹

B4: DOM7h-11-90 (other)
VL: DIQMTQSPSSLSASVGDRVTITCRASRPIGTMLSWYQQKPGKAPKLLILAFSRLQSGVPSRFSGSGSGTDFTLTISNLQPEDFATYYCAQAGTHPTTFGQGTKVEIKR
notes: Vk dAb; also called DOM7h-11-57 W108R/N106I
Ka [11]: 5.27e+07 M⁻¹ | Kd [11]: 20.2 nM | koff [11]: 0.0087 s⁻¹ | kon [11]: 469000 M⁻¹ s⁻¹ | Ka [12]: 1.91e+07 M⁻¹ | Kd [12]: 53.6 nM | kon [12]: 376000 M⁻¹ s⁻¹ | Ka [13]: 1.01e+08 M⁻¹ | Kd [13]: 9.99 nM | kon [13]: 747000 M⁻¹ s⁻¹

B5: DOM7h-11-19 (other)
VL: DIQMTQSPSSLSASVGDRVTITCRASRPIGTMLSWYQQKPGKAPKLLILFGSRLQSGVPSRFSGSGSGTDFTLTISSLQPEDFATYYCAQTGTHPTTFGQGTKVEIKR
Kd [1]: ≥ 10000 nM | Kd [2]: 100 nM | koff [2]: 0.037 s⁻¹ | kon [2]: 1.4e+06 M⁻¹ s⁻¹ | Kd [3]: 28 nM | koff [3]: 0.091 s⁻¹ | kon [3]: 980000 M⁻¹ s⁻¹ | Kd [4]: 65 nM | koff [4]: 0.11 s⁻¹ | kon [4]: 1.8e+06 M⁻¹ s⁻¹ | Kd [14]: 375000 nM | koff [14]: 0.62 s⁻¹ | kon [14]: 1700 M⁻¹ s⁻¹ | Kd [15]: 18000 nM | koff [15]: 0.088 s⁻¹ | kon [15]: 4900 M⁻¹ s⁻¹ | Kd [16]: 17000 nM | koff [16]: 0.14 s⁻¹ | kon [16]: 8100 M⁻¹ s⁻¹ | Kd [17]: 38000 nM | koff [17]: 0.209 s⁻¹ | kon [17]: 5400 M⁻¹ s⁻¹

B7: DOM7h-11-87 (other)
VL: DIQMTQSPSSLSASVGDRVTITCRASRPIGTMLSWYQQKPGKAPKLLILAFSRLQSGVPSRFSGSGSGTDFTLTISSLQPEDFATYYCAQAGTHHTTFGQGTKVEIKR
notes: Vk dAb; also called DOM7h-11-67 W108R/N106I
Ka [11]: 1.37e+08 M⁻¹ | Kd [11]: 7.39 nM | kon [11]: 1.17e+06 M⁻¹ s⁻¹ | Ka [12]: 5.77e+07 M⁻¹ | Kd [12]: 17.6 nM | kon [12]: 830000 M⁻¹ s⁻¹ | Ka [13]: 2.47e+08 M⁻¹ | Kd [13]: 4.21 nM | kon [13]: 1.37e+06 M⁻¹ s⁻¹

Continued, values first:

Kd [1]: ≥ 6000 nM | Kd [2]: 130 nM | koff [2]: 0.189 s⁻¹ | kon [2]: 1.53e+06 M⁻¹ s⁻¹ | Kd [3]: 200 nM | koff [3]: 0.522 s⁻¹ | kon [3]: 2.76e+06 M⁻¹ s⁻¹ | Kd [4]: 350 nM | koff [4]: 0.413 s⁻¹ | kon [4]: 1.26e+06 M⁻¹ s⁻¹ | Kd [5]: 130 nM | Kd [6]: 200 nM
B1: DOM7h-11-12 (other)
VL: DIQMTQSPSSLSASVGDRVTITCRASRPIGTMLSWYQQKPGKAPKLLILFGSRLQSGVPSRFSGSGSGTDFTLTISSLQPEDFATYYCAQAGTHPTTFGQGTKVEIKR

Kd [1]: 10000 nM | koff [1]: 1.36 s⁻¹ | kon [1]: 225000 M⁻¹ s⁻¹ | Kd [2]: 150 nM | koff [2]: 0.024 s⁻¹ | kon [2]: 440000 M⁻¹ s⁻¹ | Kd [3]: 80 nM | koff [3]: 0.06 s⁻¹ | kon [3]: 1.64e+06 M⁻¹ s⁻¹ | Kd [4]: 36 nM | koff [4]: 0.051 s⁻¹ | kon [4]: 3.4e+06 M⁻¹ s⁻¹ | Kd [14]: 65000 nM | koff [14]: 0.48 s⁻¹ | kon [14]: 7300 M⁻¹ s⁻¹ | Kd [15]: 1600 nM | koff [15]: 0.0623 s⁻¹ | kon [15]: 40000 M⁻¹ s⁻¹ | Kd [16]: 29000 nM | koff [16]: 0.37 s⁻¹ | kon [16]: 13000 M⁻¹ s⁻¹ | Kd [17]: 32000 nM | koff [17]: 0.27 s⁻¹ | kon [17]: 8390 M⁻¹ s⁻¹
B6: DOM7h-11-18 (other)
VL: DIQMTQSPSSLSASVGDRVTITCRASRPIGTMLSWYQQKPGKAPKLLIWFGSRLQSGVPSRFSGSGSGTDFTLTISSLQPEDFATYHCAQAGTHPTTFGQGTKVEIKR

Kd [7]: 5.2 nM | Kd [8]: 7.6 nM | Kd [9]: 23.4 nM | Kd [10]: 1.6 nM
B8: DOM7h-11-56 (other)
VL: DIQMTQSPSSLSASVGDRVTISCRASRPIGTMLSWYQQKPGKAPKLLILAFSRLQSGVPSRFSGSGSGTDFTLTISSLQPEDFATYYCAQAGTHPTTFGQGTKVEIKW
notes: Vk dAb
